{
  "source": "patent US20230212549A1",
  "about": "(3B PHARMACEUTICALS, published 2023)",
  "key": {"[1]": {"target": "Recombinant human FAP (R&D systems, #3715-SE) (human, UniProt Q12884 26-760)", "experiment": "cell-based or functional assay"}, "[2]": {"target": "T1, fibroblast activation protein (FAP) on FAP-expressing human WI-38 fibroblasts (human, UniProt Q12884 1-760)", "T1 construct": "also called human FAP", "experiment": "competitive FACS, WI-38 cells, vs Cy5 tracer m3; D = pIC50 <=6.0"}, "[3]": {"target": "T2, human fibroblast activation protein (FAP) on WI-38 fibroblasts (human, UniProt Q12884 1-760)", "T2 construct": "FAP-expressing human WI-38 fibroblasts (ECACC)", "experiment": "competitive FACS, WI-38 cells, Cy5-labeled peptide as competitor; C = pIC50 6.1 to 7.0"}, "[4]": {"target": "T3, Recombinant human FAP (R&D systems, #3715-SE) (human, UniProt Q12884 26-760)", "experiment": "cell-based or functional assay", "remark": "listed apart in the source"}, "[5]": {"target": "T2, human fibroblast activation protein …", "experiment": "competitive FACS, WI-38 cells, Cy5-labeled peptide as competitor; B = pIC50 7.1 to 8.0"}, "[6]": {"target": "T3, Recombinant human FAP (R&D systems, …)", "experiment": "SPR (Biacore T200), FAP captured on anti-FAP antibody, single cycle kinetics"}},
  "note": "“And” between values parts separate entries of the source, which are not always exact repeats. Identical values can stand only once. Numbered stars: 1 amine (or outer) side, 2 acyl side, 3 side chain; on linkers, the order of the positions; unused ones are H or OH. Bridge positions count the residues as written; N and C are the ends. Square brackets hold non-standard residues; d marks the D form. Primed or numbered codes have the meaning given here. * marks the point of attachment. tMeBn(LuDOTA-AET) = 1,3,5-trimethylbenzylidene (from 1,3,5-tris(bromomethyl)benzene) bridge with two thioethers to the Cys, its third CH2 carries AET (2-aminoethanethiol, attached through S), whose amine is acylated by DOTA complexing lutet, O=C([O-])CN1CCN(CC(=O)[O-])CCN(CC(=O)NCCSCc2cc(C[*:1])cc(C[*:2])c2)CCN(CC(=O)[O-])CC1.[Lu+3]; tMeBn(DOTA-PP) = 1,3,5-trimethylbenzylidene, two thioethers to Cys, third CH2 bound to one N of piperazine whose other N bears DOTA, O=C(O)CN1CCN(CC(=O)O)CCN(CC(=O)N2CCN(Cc3cc(C[*:1])cc(C[*:2])c3)CC2)CCN(CC(=O)O)CC1; Ttds″ = 1,13-diamino-4,7,10-trioxatridecan-succinamic acid spacer, O=C(CCC(=O)[*:2])NCCCOCCOCCOCCCN[*:1]; Ttds = 1,13-diamino-4,7,10-trioxatridecan-succinamic acid, O=C(CCC(=O)[*:2])NCCCOCCOCCOCCCN[*:1]; 3MeBn = 3-Methylbenzylidene (m-xylylene thioether bridge from α,α′-dibromo-m-xylene); Opc = (S)-N-(pyrazinylcarbonyl)-ornithine, O=C(NCCC[C@H](N[*:1])C(=O)[*:2])c1cnccn1; N4Ac = 6-Carboxy-1,4,8,11-tetraazaundecane, an N4-chelator, NCCNCC(CNCCN)C(=O)*; Pro(trans-4-Ph) = O=C(O)[C@@H]1C[C@@H](c2ccccc2)CN1; Pro(4S-NH2) = N[C@@H]1CN[C@H](C(=O)O)C1; Pro(4,4-F2) = O=C(O)[C@@H]1CC(F)(F)CN1; mXylylene = c1cc(C[*:1])cc(C[*:2])c1; NMeF = CN[C@@H](Cc1ccccc1)C(=O)O; Tic = O=C(O)[C@@H]1Cc2ccccc2CN1; AF488 = Alexa Fluor 488 label; Pen = CC(C)(S)[C@H](N)C(=O)O; Nle = CCCC[C@H](N)C(=O)O; Orn = NCCC[C@H](N)C(=O)O; PEG6′ = not defined here; Hexanoyl = CCCCCC(=O)*; Ahx = NCCCCCC(=O)O; GABA = NCCCC(=O)O",
  "data": [
    {"binder": "Hexanoyl-CPPTEF[Pen]-NH2 (linker 1-7 via mXylylene; SMILES CCCCCC(=O)N[C@H]1CSCc2cccc(c2)CSC(C)(C)[C@@H](C(N)=O)NC(=O)[C@H](Cc2ccccc2)NC(=O)[C@H](CCC(=O)O)NC(=O)[C@H]([C@@H](C)O)NC(=O)[C@@H]2CCCN2C(=O)[C@@H]2CCCN2C1=O, also called 3BP-3351)", "note": "[Hex-[Cys(3MeBn)-Pro-Pro-Thr-Glu-Phe-Pen]-NH2]", "values": [
      {"measurement": "pIC50 Category (Activity)", "setting": "[1]", "result": "6.1 pIC50 and 7 pIC50"},
      {"measurement": "pIC50 Category (FACS)", "setting": "[2]", "result": "≤ 6", "unit": "pIC50"}
    ]},
    {"binder": "Hexanoyl-CP[Pro(trans-4-Ph)]TEFC-NH2 (linker 1-7 via mXylylene; SMILES CCCCCC(=O)N[C@H]1CSCc2cccc(c2)CSC[C@@H](C(N)=O)NC(=O)[C@H](Cc2ccccc2)NC(=O)[C@H](CCC(=O)O)NC(=O)[C@H]([C@@H](C)O)NC(=O)[C@@H]2C[C@@H](c3ccccc3)CN2C(=O)[C@@H]2CCCN2C1=O, also called 3BP-3353)", "note": "[Hex-[Cys(3MeBn)-Pro-Eay-Thr-Glu-Phe-Cys]-NH2]", "values": [
      {"measurement": "pIC50 Category (Activity)", "setting": "[1]", "result": "6.1 pIC50 and 7 pIC50"},
      {"measurement": "pIC50 Category (FACS)", "setting": "[2]", "result": "≤ 6", "unit": "pIC50"}
    ]},
    {"binder": "Hexanoyl-CPP[Opc]EFC-NH2 (linker 1-7 via mXylylene; SMILES CCCCCC(=O)N[C@H]1CSCc2cccc(c2)CSC[C@@H](C(N)=O)NC(=O)[C@H](Cc2ccccc2)NC(=O)[C@H](CCC(=O)O)NC(=O)[C@H](CCCNC(=O)c2cnccn2)NC(=O)[C@@H]2CCCN2C(=O)[C@@H]2CCCN2C1=O, also called 3BP-3355)", "note": "[Hex-[Cys(3MeBn)-Pro-Pro-Opc-Glu-Phe-Cys]-NH2]", "values": [
      {"measurement": "pIC50 Category (Activity)", "setting": "[1]", "result": "6.1 pIC50 and 7 pIC50"},
      {"measurement": "pIC50 Category (FACS)", "setting": "[2]", "result": "≤ 6", "unit": "pIC50"}
    ]},
    {"binder": "Hexanoyl-CPPTE[NMeF]C-NH2 (linker 1-7 via mXylylene; SMILES CCCCCC(=O)N[C@H]1CSCc2cccc(c2)CSC[C@@H](C(N)=O)NC(=O)[C@H](Cc2ccccc2)N(C)C(=O)[C@H](CCC(=O)O)NC(=O)[C@H]([C@@H](C)O)NC(=O)[C@@H]2CCCN2C(=O)[C@@H]2CCCN2C1=O, also called 3BP-3358)", "note": "[Hex-[Cys(3MeBn)-Pro-Pro-Thr-Glu-Nmf-Cys]-NH2]", "values": [
      {"measurement": "pIC50 Category (Activity)", "setting": "[1]", "result": "6.1 pIC50 and 7 pIC50"},
      {"measurement": "pIC50 Category (FACS)", "setting": "[2]", "result": "≤ 6", "unit": "pIC50"}
    ]},
    {"binder": "Hexanoyl-CPPTE[Tic]C-NH2 (linker 1-7 via mXylylene; SMILES CCCCCC(=O)N[C@H]1CSCc2cccc(c2)CSC[C@@H](C(N)=O)NC(=O)[C@@H]2Cc3ccccc3CN2C(=O)[C@H](CCC(=O)O)NC(=O)[C@H]([C@@H](C)O)NC(=O)[C@@H]2CCCN2C(=O)[C@@H]2CCCN2C1=O, also called 3BP-3359)", "note": "[Hex-[Cys(3MeBn)-Pro-Pro-Thr-Glu-Tic-Cys]-NH2]", "values": [
      {"measurement": "pIC50 Category (Activity)", "setting": "[1]", "result": "6.1 pIC50 and 7 pIC50"},
      {"measurement": "pIC50 Category (FACS)", "setting": "[2]", "result": "≤ 6", "unit": "pIC50"}
    ]},
    {"binder": "Hexanoyl-CP[Pro(4,4-F2)]TEFC-NH2 (linker 1-7 via mXylylene; SMILES CCCCCC(=O)N[C@H]1CSCc2cccc(c2)CSC[C@@H](C(N)=O)NC(=O)[C@H](Cc2ccccc2)NC(=O)[C@H](CCC(=O)O)NC(=O)[C@H]([C@@H](C)O)NC(=O)[C@@H]2CC(F)(F)CN2C(=O)[C@@H]2CCCN2C1=O, also called 3BP-3365)", "note": "[Hex-[Cys(3MeBn)-Pro-4Dfp-Thr-Glu-Phe-Cys]-NH2]", "values": [
      {"measurement": "pIC50 Category (Activity)", "setting": "[1]", "result": "6.1 pIC50 and 7 pIC50"},
      {"measurement": "pIC50 Category (FACS)", "setting": "[2]", "result": "≤ 6", "unit": "pIC50"}
    ]},
    {"binder": "Hexanoyl-CP[Pro(4S-NH2)]TEFC-NH2 (linker 1-7 via mXylylene; SMILES CCCCCC(=O)N[C@H]1CSCc2cccc(c2)CSC[C@@H](C(N)=O)NC(=O)[C@H](Cc2ccccc2)NC(=O)[C@H](CCC(=O)O)NC(=O)[C@H]([C@@H](C)O)NC(=O)[C@@H]2C[C@H](N)CN2C(=O)[C@@H]2CCCN2C1=O, also called 3BP-3367)", "note": "[Hex-[Cys(3MeBn)-Pro-Tap-Thr-Glu-Phe-Cys]-NH2]", "values": [
      {"measurement": "pIC50 Category (Activity)", "setting": "[1]", "result": "6.1 pIC50 and 7 pIC50"},
      {"measurement": "pIC50 Category (FACS)", "setting": "[2]", "result": "≤ 6", "unit": "pIC50"}
    ]},
    {"binder": "Hexanoyl-CPP[Orn](Ac)EFC-NH2 (linker 1-7 via mXylylene; SMILES CCCCCC(=O)N[C@H]1CSCc2cccc(c2)CSC[C@@H](C(N)=O)NC(=O)[C@H](Cc2ccccc2)NC(=O)[C@H](CCC(=O)O)NC(=O)[C@H](CCCNC(C)=O)NC(=O)[C@@H]2CCCN2C(=O)[C@@H]2CCCN2C1=O, also called 3BP-3372)", "note": "[Hex-[Cys(3MeBn)-Pro-Pro-Orn(Ac)-Glu-Phe-Cys]-NH2]", "values": [
      {"measurement": "pIC50 Category (Activity)", "setting": "[1]", "result": "6.1 pIC50 and 7 pIC50"},
      {"measurement": "pIC50 Category (FACS)", "setting": "[2]", "result": "≤ 6", "unit": "pIC50"}
    ]},
    {"binder": "Hexanoyl-CPPAQFCD-NH2 (linker 1-7 via tMeBn(DOTA-PP); SMILES CCCCCC(=O)N[C@H]1CSCc2cc(cc(CN3CCN(C(=O)CN4CCN(CC(=O)O)CCN(CC(=O)O)CCN(CC(=O)O)CC4)CC3)c2)CSC[C@@H](C(=O)N[C@@H](CC(=O)O)C(N)=O)NC(=O)[C@H](Cc2ccccc2)NC(=O)[C@H](CCC(N)=O)NC(=O)[C@H](C)NC(=O)[C@@H]2CCCN2C(=O)[C@@H]2CCCN2C1=O, also called 3BP-3745)", "note": "[Hex-[Cys(tMeBn(DOTA-PP))-Pro-Pro-Ala-Gln-Phe-Cys]-Asp-NH2]", "values": [
      {"measurement": "pIC50", "setting": "[3]", "result": "6.1 to 7", "unit": "pic50"}
    ]},
    {"binder": "Hexanoyl-CPPTQFCD-NH2 (linker 1-7 via tMeBn(H-AET), also called 3BP-3981)", "note": "[Hex-[Cys-(tMeBn(H-AET))-Pro-Pro-Thr-Gln-Phe-Cys]-Asp-NH2]", "values": [
      {"measurement": "pIC50 Category (Activity)", "setting": "[4]", "result": "> 8", "unit": "pIC50"},
      {"measurement": "pIC50", "setting": "[5]", "result": "7.1 to 8", "unit": "pic50"}
    ]},
    {"binder": "H-[Ahx][Ttds][Nle]CPPTQFCD-NH2 (linker 4-10 via tMeBn(DOTA-PP); SMILES CCCC[C@H](NC(=O)CCC(=O)NCCCOCCOCCOCCCNC(=O)CCCCCN)C(=O)N[C@H]1CSCc2cc(cc(CN3CCN(C(=O)CN4CCN(CC(=O)O)CCN(CC(=O)O)CCN(CC(=O)O)CC4)CC3)c2)CSC[C@@H](C(=O)N[C@@H](CC(=O)O)C(N)=O)NC(=O)[C@H](Cc2ccccc2)NC(=O)[C@H](CCC(N)=O)NC(=O)[C@H]([C@@H](C)O)NC(=O)[C@@H]2CCCN2C(=O)[C@@H]2CCCN2C1=O, also called 3BP-4004)", "note": "[H-Ahx-Ttds-Nle-[Cys-(tMeBn(DOTA-PP))-Pro-Pro-Thr-Gln-Phe-Cys]-Asp-NH2]", "values": [
      {"measurement": "pIC50 Category (Activity)", "setting": "[4]", "result": "> 8", "unit": "pIC50"},
      {"measurement": "pIC50", "setting": "[5]", "result": "7.1 to 8", "unit": "pic50"}
    ]},
    {"binder": "Hexanoyl-CPPTQFCD[GABA]R[Ttds″][Ttds″][Ttds″]K(AF488)-NH2 (linker 1-7 via tMeBn(LuDOTA-AET); also: Lu complexed by DOTA, also called 3BP-4373)", "note": "[Hex-[Cys(tMeBn(LuDOTA-AET))-Pro-Pro-Thr-Gln-Phe-Cys]-Asp-Gab-Arg-Ttds-Ttds-Ttds-Lys(AF488)-NH2]", "values": [
      {"measurement": "pIC50 Category (Activity)", "setting": "[4]", "result": "> 8", "unit": "pIC50"},
      {"measurement": "pIC50", "setting": "[5]", "result": "7.1 to 8", "unit": "pic50"}
    ]},
    {"binder": "N4Ac-[PEG6′][Nle]CPPTEFC-OH (linker 3-9 via 3MeBn, also called 3BP-4221)", "note": "[N4Ac-PEG6-Nle-[Cys-(3MeBn)-Pro-Pro-Thr-Glu-Phe-Cys]-OH]", "values": [
      {"measurement": "pKD Category", "setting": "[6]", "result": "> 8", "unit": "pKD"},
      {"measurement": "pIC50", "setting": "[5]", "result": "7.1 to 8", "unit": "pic50"}
    ]}
  ]
}
